The values that follow come from patent publication EP1137786B1 (UNIVERSITY OF MARYLAND BIOTECHNOLOGY INSTITUTE, dated 2007).

This experiment addresses full-length single chain (FLSC) gp120-CD4 chimeric polypeptide (HIV-1 BaL; human). In words: flow cytometry on L1.2/X4 cells.

B1: CXCR4 (receptor)
chain: MEGISIYTSDNYTEEMGSGDYDSMKEPCFREENANFNKIFLPTIYSIIFLTGIVGNGLVILVMGYQKKLRSMTDKYRLHLSVADLLFVITLPFWAVDAVANWYFGNFLCKAVHVIYTVNLYSSVLILAFISLDRYLAIVHATNSQRPRKLLAEKVVYVGVWIPALLLTIPDFIFANVSEADDRYICDRFYPNDLWVVVFQFQHIMVGLILPGIVILSCYCIIISKLSHSKGHQKRKALKTTVILILAFFACWLPYYIGISIDSFILLEIIKQGCEFENTVHKWISITEALAFFHCCLNPILYAFLGAKFKTSAQHALTSVSRGSSLKILSKGKRGGHSSVSTESESSSFHSS
notes: whole, on cells; also called X4; L1.2/X4 cells
B1: the binding result is on record as “no binding”.
